Data from patent US20250197467A1 (BRIGHT PEAK THERAPEUTICS, published 2025).
Substitutions are numbered along the chain they refer to.

T1: IL-18 receptor (IL-18Rαβ) on cells (UniProt Q13478 19-541; O95256 20-599, limits assumed)
T1 sequence (looked up) 1: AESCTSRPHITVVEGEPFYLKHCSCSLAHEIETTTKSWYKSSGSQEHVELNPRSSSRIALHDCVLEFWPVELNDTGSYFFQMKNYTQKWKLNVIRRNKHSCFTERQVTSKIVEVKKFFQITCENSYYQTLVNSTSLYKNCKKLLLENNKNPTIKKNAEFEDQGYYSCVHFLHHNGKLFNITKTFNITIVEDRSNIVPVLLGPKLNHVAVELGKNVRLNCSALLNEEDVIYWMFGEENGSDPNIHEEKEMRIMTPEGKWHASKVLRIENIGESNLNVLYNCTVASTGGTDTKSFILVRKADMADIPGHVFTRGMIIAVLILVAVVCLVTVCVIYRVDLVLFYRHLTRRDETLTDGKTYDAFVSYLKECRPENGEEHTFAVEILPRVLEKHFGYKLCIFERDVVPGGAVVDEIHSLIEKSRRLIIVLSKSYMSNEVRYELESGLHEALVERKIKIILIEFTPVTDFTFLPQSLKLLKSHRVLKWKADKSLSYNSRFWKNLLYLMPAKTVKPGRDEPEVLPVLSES
T1 sequence (looked up) 2: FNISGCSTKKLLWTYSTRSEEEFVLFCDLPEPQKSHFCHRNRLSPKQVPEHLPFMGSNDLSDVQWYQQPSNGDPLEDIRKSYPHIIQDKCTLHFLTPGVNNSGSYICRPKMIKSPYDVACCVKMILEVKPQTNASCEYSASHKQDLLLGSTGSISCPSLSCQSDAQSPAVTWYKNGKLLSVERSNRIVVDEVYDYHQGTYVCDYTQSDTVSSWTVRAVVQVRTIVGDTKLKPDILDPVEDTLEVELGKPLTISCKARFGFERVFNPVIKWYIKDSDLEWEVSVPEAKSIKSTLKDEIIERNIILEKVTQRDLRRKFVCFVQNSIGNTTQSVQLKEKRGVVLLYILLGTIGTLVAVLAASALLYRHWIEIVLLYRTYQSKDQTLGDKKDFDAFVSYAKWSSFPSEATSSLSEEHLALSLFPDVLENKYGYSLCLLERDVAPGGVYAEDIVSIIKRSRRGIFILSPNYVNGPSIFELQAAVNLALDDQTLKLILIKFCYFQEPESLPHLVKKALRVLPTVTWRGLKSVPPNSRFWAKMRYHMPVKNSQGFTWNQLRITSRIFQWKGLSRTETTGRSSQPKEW

B1: C322 (ligand)
chain: MAAEPVEDNSINFVAMKFIDNTLYFIAEDDENLESDSGRVANLVGGSGYFGKLKSKLSIIRNLNDQVLFIDQGNRPLFEDMTDSDARDNAPRTIFIISMYADSQPRGMAVAISVKCEKISTLSAENKIISFKEMNPPDNIKDTKSDIIFFQRSVPGHDNKMQFESSSYEGYFLAAEKERDLFKLILKKEDELGDRSIMFTVQNED
B2: C324 + MMP9 (ligand)
chain: YFGKLKSKLSIIRNLNDQVLFIDQGNRPLFEDMTDSDARDNAPRTIFIISMYADSQPRGMAVAISVKCEKISTLSAENKIISFKEMNPPDNIKDTKSDIIFFQRSVPGHDNKMQFESSSYEGYFLAAEKERDLFKLILKKEDELGDRSIMFTVQNED
B3: C323 (ligand)
chain: MAAEPVEDNSINFVAMKFIDNTLYFIAEDDENLESDRGRRVANLVGGSGYFGKLKSKLSIIRNLNDQVLFIDQGNRPLFEDMTDSDARDNAPRTIFIISMYADSQPRGMAVAISVKCEKISTLSAENKIISFKEMNPPDNIKDTKSDIIFFQRSVPGHDNKMQFESSSYEGYFLAAEKERDLFKLILKKEDELGDRSIMFTVQNED
B4: C325 (ligand)
chain: B3 chain with V41P, A42L, N43G, V45A
B5: C321 (ligand)
chain: MAAEPVEDNSINFVAMKFIDNTLYFIAEDDENLESDRGRRPLGYFGKLKSKLSIIRNLNDQVLFIDQGNRPLFEDMTDSDARDNAPRTIFIISMYADSQPRGMAVAISVKCEKISTLSAENKIISFKEMNPPDNIKDTKSDIIFFQRSVPGHDNKMQFESSSYEGYFLAAEKERDLFKLILKKEDELGDRSIMFTVQNED
B6: C325 + MMP9 (ligand)
chain: LAGGSGYFGKLKSKLSIIRNLNDQVLFIDQGNRPLFEDMTDSDARDNAPRTIFIISMYADSQPRGMAVAISVKCEKISTLSAENKIISFKEMNPPDNIKDTKSDIIFFQRSVPGHDNKMQFESSSYEGYFLAAEKERDLFKLILKKEDELGDRSIMFTVQNED
B7: C314 (ligand)
chain: MAAEPVEDNAINFVAMKFIDNTLYFIAEDDENLESDPLGYFGKLKSKLSIIRNLNDQVLFIDQGNRPLFEDMTDSDARDNAPRTIFIISMYADSQPRGMAVAISVKCEKISTLSAENKIISFKEMNPPDNIKDTKSDIIFFQRSVPGHDNKMQFESSSYEGYFLAAEKERDLFKLILKKEDELGDRSIMFTVQNED
B8: C315 (ligand)
chain: B7 chain with A10S
B9: C326 + MMP9 (ligand)
chain: LAGSGYFGKLKSKLSIIRNLNDQVLFIDQGNRPLFEDMTDSDARDNAPRTIFIISMYADSQPRGMAVAISVKCEKISTLSAENKIISFKEMNPPDNIKDTKSDIIFFQRSVPGHDNKMQFESSSYEGYFLAAEKERDLFKLILKKEDELGDRSIMFTVQNED
B10: C326 (ligand)
chain: MAAEPVEDNSINFVAMKFIDNTLYFIAEDDENLESDRGRRVANPLGLAGSGYFGKLKSKLSIIRNLNDQVLFIDQGNRPLFEDMTDSDARDNAPRTIFIISMYADSQPRGMAVAISVKCEKISTLSAENKIISFKEMNPPDNIKDTKSDIIFFQRSVPGHDNKMQFESSSYEGYFLAAEKERDLFKLILKKEDELGDRSIMFTVQNED
B11: C324 (ligand)
chain: MAAEPVEDNSINFVAMKFIDNTLYFIAEDDENLESDRGRRVANPLGYFGKLKSKLSIIRNLNDQVLFIDQGNRPLFEDMTDSDARDNAPRTIFIISMYADSQPRGMAVAISVKCEKISTLSAENKIISFKEMNPPDNIKDTKSDIIFFQRSVPGHDNKMQFESSSYEGYFLAAEKERDLFKLILKKEDELGDRSIMFTVQNED
B12: C172 (ligand)
chain: YFGKLKSKLSIIRNLNDQVLFIDQGNRPLFEDMTDSDARDNAPRTIFIISMYADSQPRGMAVAISVKCEKISTLSAENKIISFKEMNPPDNIKDTKSDIIFFQRSVPGHDNKMQFESSSYEGYFLAAEKERDLFKLILKKEDELGDRSIMFTVQNESGGPGPAGMKGLPGSNIVPVLLGPKLNHVAVELGKNVRLNCSALLNEEDVIYWMFGEENGSDPNIHEEKEMRIMTPEGKWHASKVLRIENIGESNLNVLYNCTVASTGGTDTKSFILVRKADHHHHHH
B13: C189 (ligand)
chain: B12 chain with N196D, N215D, N257D
B14: C191 (ligand)
chain: YFGKLKSKLSIIRNLNDQVLFIDQGNRPLFEDMTDSDARDNAPRTIFIISMYADSQPRGMAVAISVKCEKISTLSAENKIISFKEMNPPDNIKDTKSDIIFFQRSVPGHDNKMQFESSSYEGYFLAAEKERDLFKLILKKEDELGDRSIMFTVQNESGGPLGLAGGSNIVPVLLGPKLNHVAVELGKNVRLNCSALLNEEDVIYWMFGEENGSDPNIHEEKEMRIMTPEGKWHASKVLRIENIGESNLNVLYNCTVASTGGTDTKSFILVRKADHHHHHH
B15: C187 (ligand)
chain: MAAEPVEDNCINFVAMKFIDNTLYFIAEDDENLESDPLGLAGYFGKLKSKLSIIRNLNDQVLFIDQGNRPLFEDMTDSDARDNAPRTIFIISMYADSQPRGMAVAISVKCEKISTLSAENKIISFKEMNPPDNIKDTKSDIIFFQRSVPGHDNKMQFESSSYEGYFLAAEKERDLFKLILKKEDELGDRSIMFTVQNED
B16: C136 (ligand)
chain: YFGKLKSKLSIIRNLNDQVLFIDQGNRPLFEDMTDSDARDNAPRTIFIISMYADSQPRGMAVAISVKCEKISTLSAENKIISFKEMNPPDNIKDTKSDIIFFQRSVPGHDNKMQFESSSYEGYFLAAEKERDLFKLILKKEDELGDRSIMFTVQNEGGSGGSNIVPVLLGPKLNHVAVELGKNVRLNCSALLNEEDVIYWMFGEENGSDPNIHEEKEMRIMTPEGKWHASKVLRIENIGESNLNVLYNCTVASTGGTDTKSFILVRKADHHHHHH
B17: C173 (ligand)
chain: YFGKLKSKLSIIRNLNDQVLFIDQGNRPLFEDMTDSDARDNAPRTIFIISMYADSQPRGMAVAISVKCEKISTLSAENKIISFKEMNPPDNIKDTKSDIIFFQRSVPGHDNKMQFESSSYEGYFLAAEKERDLFKLILKKEDELGDRSIMFTVQNEPLGLAGSNIVPVLLGPKLNHVAVELGKNVRLNCSALLNEEDVIYWMFGEENGSDPNIHEEKEMRIMTPEGKWHASKVLRIENIGESNLNVLYNCTVASTGGTDTKSFILVRKADHHHHHH

target: T1, IL-18 receptor (IL-18Rαβ) on cells; assay: cell-based or functional assay

Question: B1 was tested. Which “IFNγ release NK-92 assay EC50” value did it give?
Answer: 205 nM

Question: With B2 as the binder, how does the “IFNγ release NK-92 assay EC50” value read?
Answer: 0.0022 nM

Question: For B3, which “IFNγ release NK-92 assay EC50” value is on record?
Answer: 102 nM

Question: B4 was tested. Which “IFNγ release NK-92 assay EC50” value did it give?
Answer: 201 nM

Question: How did the “IFNγ release NK-92 assay EC50” value turn out when B5 was run?
Answer: 112 nM

Question: With B6 as the binder, how does the “IFNγ release NK-92 assay EC50” value read?
Answer: 0.0467 nM

Question: B7 was tested. Which “IFNγ release NK-92 assay EC50” value did it give?
Answer: 255 nM

Question: With B8 as the binder, how does the “IFNγ release NK-92 assay EC50” value read?
Answer: 252 nM

Question: With B9 as the binder, how does the “IFNγ release NK-92 assay EC50” value read?
Answer: 0.0514 nM

Question: How did the “IFNγ release NK-92 assay EC50” value turn out when B10 was run?
Answer: 217 nM

Question: Which “IFNγ release NK-92 assay EC50” value does the source give for B11 here?
Answer: 51.7 nM

target: T1, IL-18 receptor (IL-18Rαβ) on cells; assay: cell-based or functional assay; remark: another data set of the same source

Question: Which results are given for B12?
Answer: Fold potency loss vs C086: 26 fold; HEK-blue EC50: 1.09 nM

Question: For B13, which “Fold potency loss vs C086” value is on record?
Answer: 10 fold

Question: What about the “HEK-blue EC50” value of the same binder?
Answer: 0.43 nM

Question: B14 was tested. Which “Fold potency loss vs C086” value did it give?
Answer: 48 fold

Question: What about the “HEK-blue EC50” value of the same binder?
Answer: 2.02 nM

Question: What does the source list for B15?
Answer: Fold potency loss vs C086: 29400 fold; HEK-blue EC50: 1240 nM

Question: With B16 as the binder, how does the “Fold potency loss vs C086” value read?
Answer: 21 fold

Question: And the “HEK-blue EC50” value?
Answer: 0.884 nM

target: T1, IL-18 receptor (IL-18Rαβ) on cells; assay: cell-based or functional assay; remark: another data set of the same source

Question: B12 was tested. Which “Hek Blue reporter assay EC50” value did it give?
Answer: 0.00109 nM

Question: With B13 as the binder, how does the “Hek Blue reporter assay EC50” value read?
Answer: 0.00043 nM

Question: For B14, which “Hek Blue reporter assay EC50” value is on record?
Answer: 0.00202 nM

Question: Which “Hek Blue reporter assay EC50” value does the source give for B17 here?
Answer: 0.00013 nM

Question: With B7 as the binder, how does the “Hek Blue reporter assay EC50” value read?
Answer: 4 nM

Question: With B8 as the binder, how does the “Hek Blue reporter assay EC50” value read?
Answer: 3.36 nM

Question: With B15 as the binder, how does the “Hek Blue reporter assay EC50” value read?
Answer: 1.24 nM

Question: How did the “Hek Blue reporter assay EC50” value turn out when B16 was run?
Answer: 0.000884 nM
